Source: patent US20220187308A1 (published 2022)

T1: soluble human IL-6 receptor (human, UniProt P08887 20-357)
T1 construct: range 1-357; The stated range begins at position 1, so it includes the signal peptide; no cleavage site is stated; also called hsIL-6R
T1 sequence (looked up): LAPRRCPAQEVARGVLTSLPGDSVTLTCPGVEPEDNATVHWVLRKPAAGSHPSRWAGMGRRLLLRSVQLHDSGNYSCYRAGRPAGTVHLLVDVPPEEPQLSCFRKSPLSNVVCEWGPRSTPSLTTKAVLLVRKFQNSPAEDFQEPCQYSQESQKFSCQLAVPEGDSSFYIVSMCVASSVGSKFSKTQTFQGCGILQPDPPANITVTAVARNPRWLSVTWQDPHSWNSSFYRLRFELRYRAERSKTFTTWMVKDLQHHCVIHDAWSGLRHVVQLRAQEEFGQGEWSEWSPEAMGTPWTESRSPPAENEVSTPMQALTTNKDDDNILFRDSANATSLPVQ

T2: biotinylated human HMGB1-Avi (human, UniProt P09429 2-215, biotin added at the C-terminal Avitag sequence by biotin ligase (BirA))
T2 construct: also called biotin-labeled hHMGB1; hHMGB1-Avitag
T2 sequence: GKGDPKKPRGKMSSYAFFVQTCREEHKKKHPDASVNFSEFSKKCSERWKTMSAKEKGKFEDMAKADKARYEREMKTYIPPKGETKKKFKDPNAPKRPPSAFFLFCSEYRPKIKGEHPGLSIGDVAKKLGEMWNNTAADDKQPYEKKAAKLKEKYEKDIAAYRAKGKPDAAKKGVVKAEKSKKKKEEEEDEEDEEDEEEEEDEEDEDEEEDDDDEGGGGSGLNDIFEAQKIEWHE

T3: human HMGB1 (human, UniProt P09429 2-215)
T3 construct: Expressed in FreeStyle 293 cells and purified; analyte in the Biacore assay of step (26-5); also called hHMGB1; recombinant human HMGB1
T3 sequence: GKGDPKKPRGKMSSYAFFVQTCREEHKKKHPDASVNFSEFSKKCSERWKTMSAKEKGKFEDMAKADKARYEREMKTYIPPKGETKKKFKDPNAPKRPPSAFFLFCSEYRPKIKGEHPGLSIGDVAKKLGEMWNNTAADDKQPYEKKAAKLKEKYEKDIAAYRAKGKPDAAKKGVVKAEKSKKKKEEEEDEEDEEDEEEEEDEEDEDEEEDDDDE


Experiments:
[1] = target: T1, soluble human IL-6 receptor; assay: SPR (Biacore T100); ratio of the KD values at 3 µM and 2 mM CaCl2
Method: The antigen-antibody reaction was kinetically analyzed in solutions of 2 mM and 3 μM calcium ion concentrations as high-calcium ion concentration and low-calcium ion concentration conditions, respectively. Each antibody of interest was captured onto Sensor chip CM4 (GE Healthcare Bio-Sciences Corp.) with protein A (Invitrogen Corp.) immobilized thereon in an appropriate amount by the amine coupling method. Two types of buffer solutions were used as running buffers: 10 mM ACES, 150 mM NaCl, 0.05% (w/v) Tween 20, and 2 mM CaCl₂ (pH 7.4); and 10 mM ACES, 150 mM NaCl, 0.05% (w/v) Tween 20, and 3 […] CaCl₂ (pH 7.4). The human IL-6 receptors were also diluted with each of these buffers. Assay was all carried out at 37° C.

GC-mIgA = target: T4, GC-mIgA (mouse); assay: SPR (Biacore A100), antibody from culture supernatant captured via protein A/G on CM5, GC-mIgA as analyte, 25 C, 1.2 mM CaCl2, pH 7.4 against pH 5.8
T4 construct: also called recombinant mouse IgA GC-mIgA; mouse IgA
T4 sequence (light, as listed by the source): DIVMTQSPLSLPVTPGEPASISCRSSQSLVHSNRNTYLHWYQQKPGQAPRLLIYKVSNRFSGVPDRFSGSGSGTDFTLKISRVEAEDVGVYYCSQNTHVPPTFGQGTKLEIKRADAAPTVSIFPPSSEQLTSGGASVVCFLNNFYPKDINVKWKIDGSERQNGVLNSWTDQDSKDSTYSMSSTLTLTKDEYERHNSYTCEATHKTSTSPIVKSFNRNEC
Method: The culture supernatant obtained by the above method was used to analyze GC-mIgA-binding ability using Biacore A100. Antibodies in the culture supernatant were captured onto Sensor chip CM5 (GE Healthcare Bio-Sciences Corp.) with protein A/G (Pierce Biotechnology Inc.) immobilized thereon in an appropriate amount by the amine coupling method. Two types of buffer solutions were used as running buffers: 20 mM ACES, 150 mM NaCl, 0.05% (w/v) Tween 20, and 1.2 mM CaCl₂) (pH 7.4); and 20 mM ACES, 150 mM NaCl, 0.05% (w/v) Tween 20, and 1.2 mM CaCl₂) (pH 5.8). The interaction of antigen-antibody reaction was analyzed under neutral pH and acidic pH conditions. GC-mIgA was also diluted with each of these buffers and injected at a flow rate of 10 μL/min for 60 seconds to interact the antigen with the antibodies captured on the sensor chip. Then, 10 mM glycine-HCl (pH 1.5) was injected thereto at a flow rate of 30 μL/min for 30 seconds to regenerate the sensor chip. Assay was all carried out at 25° C.

[2] = target: T2, biotinylated human HMGB1-Avi; assay: phage ELISA (Fab displayed on phage) on biotin-labeled hHMGB1 on a StreptaWell plate, pH 7.6 against pH 5.5
Method: A phage-containing culture supernatant was collected by phage culture according to a conventional method (Methods Mol. Biol. (2002) 178, 133-145) from each single colony of the E. coli obtained after the third and fourth rounds of panning carried out in the step (26-2). After addition of BSA and CaCl₂) (final concentration: 4% BSA and 1.2 mM calcium ion), the phage-containing culture supernatant was subjected to ELISA by the following procedures: StreptaWell 96 microtiter plate (F. Hoffmann-La Roche Ltd.) was coated for 4 hours or longer with 100 μL of PBS containing biotin-labeled hHMGB1. Each well of the plate was washed with PBST to remove unbound antigens. Then, the well was blocked with 250 μL of 4% BSA-TBS (50 mM Tris, 300 mM NaCl, 2.5 mM CaCl₂), and 4% BSA) for 1 hour or longer. […] Each well was washed with 1.2 mM CaCl₂)/TBST (pH 7.6), and 1.2 mM CaCl₂)/TBS (pH 7.6) or 1.2 mM CaCl₂)/150 mM NaCl/50 mM MES (pH 5.5) was added thereto. The plate was left standing at 37° C. for 30 minutes for incubation. After washing with 1.2 mM CaCl₂)/TBST (pH 7.6), HRP-conjugated anti-M13 antibodies (Amersham Pharmacia Biotech Inc.) diluted with 4% BSA-TBS were added to each well. The plate was incubated for 1 hour. After washing with 1.2 mM CaCl₂)/TBST (pH 7.6), TMB single solution (Invitrogen Corp.) was added to the well. The chromogenic reaction of the solution in each well was terminated by the addition of sulfuric acid. Then, the developed color was assayed on the basis of absorbance at 450 nm.

human HMGB1 = target: T3, human HMGB1; assay: SPR (Biacore T100), antibody captured via protein A/G on CM4, hHMGB1 as analyte, 25 C, 1.2 mM CaCl2, pH 7.4 against pH 5.8
Method: In order to judge the pH dependence of hHMGB1-binding activity of the antibodies HM_3_2_R_017 (heavy chain: SEQ ID NO: 131 and light chain: SEQ ID NO: 132), HM_3_2_R_054 (heavy chain: SEQ ID NO: 133 and light chain: SEQ ID NO: 134), and HM_4_1_R_001 (heavy chain: SEQ ID NO: 135 and light chain: SEQ ID NO: 136) obtained in the step (26-4), these antibodies were analyzed for their interaction with hHMGB1 using Biacore T100 (GE Healthcare Bio-Sciences Corp.). The interaction of antigen-antibody reaction was analyzed in solutions of pH 7.4 and pH 5.8 as neutral pH and acidic pH conditions, respectively. Approximately of 200 RU of each antibody of interest was captured onto Sensor chip CM4 (GE Healthcare Bio-Sciences Corp.) with protein A/G (Pierce Biotechnology Inc.) immobilized thereon in an appropriate amount by the amine coupling method. Two types of buffer solutions were used as running buffers: 20 mM ACES, 150 mM NaCl, 0.05% (w/v) Tween 20, and 1.2 mM CaCl₂) (pH 7.4); and 20 mM ACES, 150 mM NaCl, 0.05% (w/v) Tween 20, and 1.2 mM CaCl₂) (pH 5.8). hHMGB1 was also diluted with each of these buffers. Assay was all carried out at 25° C.
In the analysis on the interaction of antigen-antibody reaction using the HM_3_2_R_017 antibody, the HM_3_2_R_054 antibody, and the HM_4_1_R_001 antibody, the diluted hHMGB1 solution or a blank running buffer was injected at a flow rate of 10 μL/min for 60 seconds to […] onto the sensor chip. The HM_3_2_R_017 antibody, the HM_3_2_R_054 antibody, and the HM_4_1_R_001 antibody were interacted with hHMGB1. Then, 10 mM glycine-HCl (pH 1.5) was injected thereto at a flow rate of 30 μL/min for 30 seconds to regenerate the sensor chip.

Ca dependence (KD at 3 µM CaCl2 against KD at 2 mM CaCl2) [1] [times]	binding result (GC-mIgA)	binding result [2]	binding result (human HMGB1)	Binder
≥ 60	–	–	–	FH4-IgG1 (antibody, V domains shown, also called FH4-IgG1 antibody) VH: QVQLVQSGAEVKKPGSSVKVSCKASGGTFSSYAISWVRQAPGQGLEWMGGIIPIFGTANYAQKFQGRVTITADESTSTAYMELSSLRSEDTAVYYCARERDYYDSSGYYDAFDIWGQGTMVTVSS VL: ETTVTQSPSFLSASVGDRVTITCITTTDIDDDMNWFQQEPGKAPKLLISEGNILRPGVPSRFSSSGYGTDFTLTISKLQPEDFATYYCLQSDNLPFTFGQGTKLEIKR
≥ 120	–	–	–	6RL #9-IgG1 (antibody, V domains shown, also called 6RL #9 antibody; 6RL #9-IgG1 antibody) VH: QVQLVQSGAEVKKPGASVKVSCKASGYTFTSYYMHWVRQAPGQGLEWMGIINPSGGSTSYAQKFQGRVTMTRDTSTSTVYMELSSLRSEDTAVYYCARDDPGGGEYYFDYWGQGTLVTVSS VL: QSVLTQPPSVSGAPGQRVTISCTGSRSNMGAGYDVHWYQLLPGAAPKLLISHNTHRPSGVPDRFSGSKSGASASLAITGLQAEDEADYYCQSHDSSLSAVVFGGGTKLTVLS
~1	–	–	–	H54/L28-IgG1 (antibody, V domains shown, Control anti-human IL-6 receptor antibody described in WO2009125825; also called H54/L28-IgG1 antibody) VH: QVQLQESGPGLVKPSETLSLTCAVSGYSISDDQAWSWVRQPPGEGLEWIGYISYSGITNYNPSLKGRVTISRDTSKNQFSLKLSSVTAADTAAYYCARSLARTTAMDYWGEGTLVTVSS VL: DIQMTQSPSSLSASVGDSVTITCQASQDISSYLNWYQQKPGKAPELLIYYGSELHSGVPSRFSGSGSGTDFTFTISSLEAEDAATYYCQQGNSLPYTFGQGTKVEIER
–	binds	–	–	mIAP1B3-3_#024 (antibody, human IgG1, kappa, V domains shown, From His library 1; tested from the culture supernatant of 293-F cells) VH: QVQLQESGPGLVKPSQTLSLTCAVSGGSISKTYSYWAWIRQHPVKGLEWIGYISYGGGTHYNPSLKSRVTISSDTSKNHFSLNLNSVTAADTAVYYCARSGFRVFGAFDIWGQGTMVTVSS VL: DIQMTQSPSSLSASVGDRVTITCRASQSIRSHLNWYQQKPGKAPKLLIYDASHLQSGVPSRFSGSGSGTDFTLTISSLQPEDFATYYCQQHYNSPLTFGQGTKVEIKR
–	binds	–	–	mIAP1B3-3_#130 (antibody, human IgG1, kappa, V domains shown, From His library 1; tested from the culture supernatant of 293-F cells) VH: QVQLQESGPGLVKPSETLSLTCTVSGGSISSSSYYWGWIRQPPGKGLEWIGSIYYSGSTYYNPSLKSRVTISVDTSKNQFSLKLSSVTAADTAVYYCARHGPSGSYYAFDIWGQGTMVTVSS VL: DIQMTQSPSSLSASVGDRVTITCRASQSISSHLNWYQQKPGKAPKLLIYKASHLQSGVPSRFSGSGSGTDFTLTISSLQPEDFATYYCQQRHHSPLTFGQGTKVEIKR
–	–	binds	binds	HM_3_2_R_017 (antibody, human IgG1, kappa, V domains shown, From His library 1; also called HM_3_2_R_017 antibody) VH: QVQLQESGPGLVKPSETLSLTCSVSGGPISSSGYYWGWIRQPPGKGLEWIGTVYFNGDTYYNPSLKSRVTISVDTSKNQFSLKLNSVTAADTAVYYCAREEGYYYYYMDVWGKGTTVTVSS VL: DIQMTQSPSSLSASVGDRVTITCRASQSINSHLNWYQQKPGKAPKLLIYGASHLQSGVPSRFSGSGSGTDFTLTISSLQPEDFATYYCQQSHSYPLTFGQGTKVEIKR
–	–	binds	binds	HM_4_1_R_001 (antibody, human IgG1, kappa, V domains shown, From His library 1; also called HM_4_1_R_001 antibody; HM_4_1R_001 antibody) VH: EVQLVESGGGLVQPGGSLRLSCAASGFTFSNYEMNWVRQAPGKGLEWISYISSSGRTFSYADSVKGRFTISRDNAKNSLYLQMNSLRAEDTAVYYCARDSGYSDGWYPSWFDSWGQGTLVTVSS VL: DIQMTQSPSSLSASVGDRVTITCRASQSINSHLAWYQQKPGKAPKLLIYHASNLQSGVPSRFSGSGSGTDFTLTISSLQPEDFATYYCQQHSSYPYTFGQGTKVEIKR
–	binds	–	–	mIAP1B3-3_#230 (antibody, human IgG1, kappa, V domains shown, From His library 1; tested from the culture supernatant of 293-F cells) VH: QVQLQQSGPGLVKPSESLSLTCNVSGYYISSGYYWGWIRQPPGKGLEWIGSIYPSGTSHYNPSLKSRVTISLDTSKNQFSLKLSSLSAADTAVYYCARAGVIAGGPRTYAFDIWGQGTTVTVSS VL: DIQMTQSPSSLSASVGDRVTITCRASQSIRSHLAWYQQKPGKAPKLLIYKASHLQSGVPSRFSGSGSGTDFTLTISSLQPEDFATYYCQQSHHSPLTFGQGTKVEIKR
–	–	binds	binds	HM_3_2_R_054 (antibody, human IgG1, kappa, V domains shown, From His library 1; also called HM_3_2_R_054 antibody) VH: QVQLVQSGAEVKKPGSSVKVSCKASGGTFSSYAISWVRQAPGQGLEWMGGIIPIFGTANYAQKFQGRVTITADESTSTAYMELSSLRSEDTAVYYCARDNRTLTYYDFWSGYSFWDAFDIWGQGTMVTVSS VL: DIQMTQSPSSLSASVGDRVTITCRASQSIHSHLAWYQQKPGKAPKLLIYGASHLQSGVPSRFSGSGSGTDFTLTISSLQPEDFATYYCQQRHSYPLTFGQGTKVEIKR
